Data: patent US20210047398A1, “ASPROSIN, A FAST-INDUCED GLUCOGENIC PROTEIN HORMONE” (Baylor College of Medicine, priority 2016, published 2021)

Assays:
[1] = Plasma asprosin, glucose, insulin and hormones in mice after asprosin gain-of-function; type: in vivo
Description: Animals. […] MgR heterozygous mice were obtained from Jackson labs, and bred to obtain male MgR homozygous mice and WT littermates. 5-week-old male Ob/Ob mice were obtained from Jackson labs. […] For diet induced obesity studies, mice were placed on the adjusted calories diet providing 60% of calories from fat by Harlan-Teklad for 12 weeks. […] Mice were exposed to 30 μg recombinant His-tagged asprosin or recombinant Green Fluorescent Protein (GFP) daily for 10 days via subcutaneous injection. Mice were sacrificed and plasma and various organs were isolated 10 days after virus or peptide injection. For single dose injections, the same protocol was followed as that for daily injections, followed by collection of plasma at the indicated times via tail bleeds for insulin and glucose measurement. Insulin and glucose tolerance tests (ITT and GTT) were performed using standard procedures. […] For immunologic sequestration experiments, mice were injected intra-peritoneally with a 500 μg dose in saline of a custom-built (Thermo Scientific Inc.) anti-asprosin mouse monoclonal antibody directed against amino acids 106-134 (human profibrillin amino acids 2837-2865) or an equivalent dose of isotype matched IgG (Southern Biotech, Inc.). […] The Baylor College of Medicine Institutional Animal Care and Utilization Committee approved all experiments.
Plasma metabolic parameters. Human plasma insulin was measured using a human insulin ELISA kit by Abcam. Mouse plasma insulin was measured using a mouse insulin ELISA kit by Millipore. Mouse plasma glucagon, epinephrine, norepinephrine and corticosterone were measured by the Vanderbilt University Hormone Assay & Analytical Services Core.

[2] = test system: AgRP neurons; assay: Whole-cell patch clamp recordings on AgRP neurons; type: cell-based, mice
Description: Electrophysiology—Whole-cell patch clamp recordings were performed on identified AgRP neurons or POMC neurons in the brain slices containing the arcuate nucleus of the hypothalamus (ARH). In particular, to identify AgRP neurons, the inventors crossed Rosa26-tdTOMATO allele onto the regular AgRP-Cre mice (Tong et al., 2008) to generate AgRP-Cre/Rosa26-tdTOMATO mice, which express TOMATO selectively in AgRP/NPY neurons. In some studies, the inventors crossed NPY-GFP mice (Pinto et al., 2004) with NPS mice to generate NPY-GFP mice with or without the NPS mutation, and GFP-labelled neurons in the arcuate nucleus were recorded. In order to record POMC neurons, the inventors crossed Rosa26-tdTOMATO allele onto the POMC-CreERT2 mice (Berglund et al., 2013) to generate POMC-CreERT2/Rosa26-tdTOMATO mice, which express TOMATO selectively in mature POMC neurons upon tamoxifen induction (0.2 mg/g, i.p. 6 weeks of age). In some studies, the inventors also crossed the AgRP-DTR allele onto POMC-GFP mice, and these mice received DT or saline injections (described above) to generate mice with or without AgRP neurons ablated.
Six to twelve-week old mice were deeply anesthetized with isoflurane and transcardially perfused with a modified ice-cold sucrose-based cutting solution (pH 7.3) containing 10 mM NaCl, 25 mM NaHCO3, 195 mM Sucrose, 5 mM Glucose, 2.5 mM KCl, 1.25 mM NaH2PO4, 2 mM Na-Pyruvate, 0.5 mM CaCl2, and 7 mM MgCl2, bubbled continuously with 95% O2 and 5% CO2 (Ren et al., 2012). The mice were then decapitated, and the entire brain was removed and immediately submerged in the cutting solution. Slices (250 μm) were cut with a Microm HM 650V vibratome (Thermo Scientific). Three brain slices containing the arcuate nucleus were obtained for each animal (Bregma −2.06 mm to −1.46 mm; Interaural 1.74 mm to 2.34 mm), and recordings were made at levels throughout this brain region. The slices were recovered for 1 h at 34° C. and then maintained at room temperature in artificial cerebrospinal fluid (aCSF, pH 7.3) containing 126 mM NaCl, 2.5 mM KCl, 2.4 mM CaCl2, 1.2 mM NaH2PO4, 1.2 mM MgCl2, 11.1 mM glucose, and 21.4 mM NaHCO3) saturated with 95% O2 and 5% CO2 before recording.
Slices were transferred to a recording chamber and allowed to equilibrate for at least 10 min before recording. The slices were superfused at 34° C. in oxygenated aCSF at a flow rate of 1.8-2 ml/min. GFP or TOMATO-labeled neurons in the ARH were visualized using epifluorescence and IR-DIC imaging on an upright microscope (Eclipse FN-1, Nikon) equipped with a moveable stage (MP-285, Sutter Instrument). Patch pipettes with resistances of 3-5 MΩ were filled with intracellular solution (pH 7.3) containing 128 mM K-Gluconate, 10 mM KCl, 10 mM HEPES, 0.1 mM EGTA, 2 mM MgCl2, 0.05 mM Na-GTP and 0.05 mM Mg-ATP. Recordings were made using a MultiClamp 700B amplifier (Axon Instrument), sampled using Digidata 1440A and analyzed offline with pClamp 10.3 software (Axon Instruments). Series resistance was monitored during the recording, and the values were generally <10 MΩ and were not compensated. The liquid junction potential was +12.5 mV, and was corrected after the experiment. Data were excluded if the series resistance increased dramatically during the experiment or without overshoot for action potential. Currents were amplified, filtered at 1 kHz, and digitized at 20 kHz. Current clamp was engaged to test neural firing frequency and resting membrane potential (RM) at the baseline and puff delivered recombinant Asprosin (500 ms at various concentrations indicated in the figures). For the asprosin antibody pre-incubation experiment, asprosin and anti-asprosin mAB or IgG were gently mixed at a 1:100 ratio, and then kept on ice for one hour before recording. After AgRP or POMC neuron response to asprosin alone was confirmed, the mixture of recombinant asprosin and anti-asprosin mAB or IgG was perfused to treat the AgRP or POMC neurons for 4 minutes. […]

[3] = 2 hours after single 30 μg dose

B1: recombinant asprosin: 146 amino acid E. coli expressed fusion protein: 6 amino acid N-terminal His tag and 140 amino acid wild type asprosin (FBN1 2732-2871) (protein)
chain: HHHHHHSTNETDASNIEDQSETEANVSLASWDVEKTAIFAFNISHVSNKVRILELLPALTTLTNHNRYLIESGNEDGFFKINQKEGISYLHFTKKKPVAGTYSLQISSTPLYKKKELNQLEDKYDKDYLSGELGDNLKMKIQVLLH
plasma levels of catabolic hormones (glucagon, catecholamines, glucocorticoids) ([1]; 15-20 minutes after single 30 μg dose): no effect
plasma insulin ([1]; 15 minute time-point after single dose, 2-hour fast): compensatory hyperinsulinemia
glucose uptake in peripheral organs in glucose- and insulin-tolerance tests [1, 3]: little evidence of altered glucose uptake
peak glucose levels in glucose- and insulin-tolerance tests [1, 3]: altered peak glucose levels
glucose and insulin levels ([1]; 10 days of exposure, 2-hour fasted mice): elevated
blood glucose levels after a single dose ([1]; single 30 μg subcutaneous dose, 2-hour preceding fast): immediate spike
time to normalized blood glucose levels post injection ([1]; single dose, 2-hour fast): ≤ 60 min
rate of the blood glucose spike ([1]; single dose, overnight preceding fast, otherwise similar results): somewhat slower
insulin deficit of MgR mice ([1]; single subcutaneous administration, overnight fasted MgR mice): sufficient to completely rescue the insulin deficit
miniature excitatory post-synaptic current (mEPSC) of AgRP neurons [2]: increased the amplitude but not frequency
proportion of AgRP neurons asprosin-responsive [2]: about 50%
dose-dependency of AgRP neuron activation (firing frequency, membrane potential) ([2]; 0.01-100 nM, intact slices): dose-dependent activation
asprosin-mediated activation with synaptic inputs pharmacologically inhibited ([2]; TTX or TTX + AP-5 + CNQX + bicuculline): no decrease in asprosin-mediated activation
EC50 for AgRP neuron activation ([2]; firing frequency and membrane potential): nanomolar to subnanomolar range
AgRP neuron firing frequency and membrane potential ([2]; recombinant asprosin puff): acutely induced their activation
